A short description of series [1]: Reaction of met-Ngb with nitrite to produce nitrosyl-Ngb (nitrite ferric heme reduction). Type of series: biochemical. The settings on record: met-Ngb with nitrite in the presence of dithionite.
Series [2] in a line: Anaerobic reaction of deoxygenated globins with excess nitrite (nitrite reductase kinetics, absorption / stopped-flow spectroscopy). Format: biochemical. The protocol: Oxygen contamination was prevented by application of positive argon pressure without a channel for gas escape. Concentrations of single species during reactions were determined by least squares deconvolution of the visible absorption spectrum into standard reference spectra using Microsoft Excel analysis. OxyNgb was included to confirm successful deoxygenation before the reaction. […] Fast kinetic studies were performed using an Applied Photophysics DX-17 stopped-flow instrument equipped with rapid-scanning diode array detection. […] To determine bimolecular rate constants all reactions were analyzed with Pro-K software (Applied Photophysics) using singular value decomposition followed by fitting of the reduced data matrix to a pseudo-first order kinetic model.

The nature of series [3]: EPR spectroscopy of iron-nitrosyl-heme formation from nitrite. Type of series: biochemical. Conditions: 1 mM nitrite. As for the experimental part:
Iron nitrosyl species were measured by EPR spectroscopy using a Bruker EMX 10/12 spectrometer operating at 9.4 GHz, 5-G modulation, 10.1-milliwatt power, 327.68-ms time constant and 163.84-s scan over 600 G at 110 K as described previously (Basu et al., J Biol Chem 283:32590-32597, 2008; Azarov et al., J. Biol. Chem. 280:[…], 2005). The concentrations of Mb and Ngb species were determined by performing the double integral calculation and comparing to standard samples.

Series [4] in a line: Determination of nitrite binding constants to met-Ngb (difference spectra titration). Conditions: met-Ngb 10 μM, 200 mM phosphate buffer, pH 7.4, 25° C.; read-out: Kd (NO2^−). As for the experimental part: To determine the binding constant of nitrite to metNgb, 10 μM wild type and mutant Ngb in 200 mM phosphate buffer, pH 7.4, were incubated in a cuvette at 25° C. with increasing concentrations of nitrite and the UV—visible spectra were recorded after each increase in nitrite concentration. The constant KD for each protein was determined by interpolation of the absorbance data following procedures in Nicolis et al. (Biochem J 407:89-99, 2007).

A further series concerns SHSY5Y cells. Description: Hypoxic inhibition of cellular respiration in SHSY5Y cells expressing Ngb. Conditions: cells stably transfected with GFP-tagged Ngb, nitrite added, FCCP. Type of series: cell-based. The protocol:
Mitochondria were isolated from the livers of male Sprague Dawley rats and incubated with wild-type or mutant Ngb proteins in a sealed, stirred chamber at 37° C. State 3 respiration was stimulated with succinate (15 mM) and ADP (1 mM) and oxygen consumption was measured with a Clark-type oxygen electrode. To measure inhibition of respiration in hypoxic conditions, respiring mitochondria were allowed to consume oxygen until the chamber became anoxic and then the chamber lid was removed to allow the diffusion of air back into the chamber. The rate of mitochondrial respiration was greater than the rate of oxygen entering the chamber such that the oxygen electrode trace remained at zero while the mitochondria were respiring. Nitrite was added to the chamber prior to the removal of the lid and deviation of the oxygen trace from a zero reading signified a decrease in respiration rate. All experiments were performed under conditions where substrates were not limiting. The extent of respiratory inhibition was quantified by measuring the time from equilibration of the mitochondria with air to the time when the oxygen trace deviated from zero. This time to inhibition was expressed as a percentage of maximal inhibition, where 100% inhibition was defined as the time to inhibition in the presence of cyanide and the time to the exhaustion of substrates was used as a measure of 0% inhibition. […]

Series [5] has as its system isolated rat liver mitochondria. Description: Hypoxic inhibition of respiration of isolated mitochondria. Format: cell-based. The settings on record: 5 μM protein with 20 μM nitrite, hypoxia. As for the experimental part: Mitochondria were isolated from the livers of male Sprague Dawley rats and incubated with wild-type or mutant Ngb proteins in a sealed, stirred chamber at 37° C. State 3 respiration was stimulated with succinate (15 mM) and ADP (1 mM) and oxygen consumption was measured with a Clark-type oxygen electrode. To measure inhibition of respiration in hypoxic conditions, respiring mitochondria were allowed to consume oxygen until the chamber became anoxic and then the chamber lid was removed to allow the diffusion of air back into the chamber. The rate of mitochondrial respiration was greater than the rate of oxygen entering the chamber such that the oxygen electrode trace remained at zero while the mitochondria were respiring. Nitrite was added to the chamber prior to the removal of the lid and deviation of the oxygen trace from a zero reading signified a decrease in respiration rate. All experiments were performed under conditions where substrates were not limiting. The extent of respiratory inhibition was quantified by measuring the time from equilibration of the mitochondria with air to the time when the oxygen trace deviated from zero. This time to inhibition was expressed as a percentage of maximal inhibition, where 100% inhibition was defined as the time to inhibition in the presence of cyanide and the time to the exhaustion of substrates was used as a measure of 0% inhibition. Similar experiments were performed with SHSY5Y cells suspended in the respirometer and treated with the uncoupler FCCP (5 μM) to measure hypoxic inhibition of cellular respiration.

The nature of series [6]: Direct measurement of NO release in gas phase (chemiluminescence). Format: biochemical. An excerpt:
Once a stable baseline was established Ngb was reacted with a known amount of nitrite as previously described (Huang et al., J Clin Invest 115:2099-2107, 2005).

In another series the test system is SHSY5Y neuronal cells. Description: Determination of cGMP in SHSY5Y neuronal cells under hypoxia. Format: cell-based. The settings on record: 6 hours hypoxia (1% oxygen), no exogenous nitrite, cells expressing the protein. The protocol: SHSY5Y cells, expressing the GFP vector, wild type Ngb or H64L mutant Ngb were plated on Corning® CellBIND® Surface 100 mm culture dishes at a concentration of 5-7.5×10^5 cells/plate and grown to 80-90% confluence. After four days of growth, the cells were incubated for 6 hours under hypoxic conditions (1% oxygen). Following hypoxic treatment, the cGMP levels were measured using the cyclic GMP EIA Kit (Cayman Chemicals catalog #581021) according to the manufacturer's instructions. Protein levels were measured and used to normalize results.

What is called Kd is a measure of binding affinity in units of concentration.

B1: H64L: stable five-coordinate mutant of human neuroglobin, His64 to Leu substitution, SEQ ID NO: 9 (protein)
chain: MERPEPELIRQSWRAVSRSPLEHGTVLFARLFALEPDLLPLFQYNCRQFSSPEDCLSSPEFLDLIRKVMLVIDAAVTNVEDLSSLEEYLASLGRKHRAVGVKLSSFSTVGESLLYMLEKCLGPAFTPATRAAWSQLYGAVVQAMSRGWDGE
On to B1, for which, in series [1], the “BRC of nitrite ferric heme reduction” value is recorded as 0.032 ± 0.002. Also, the “BRC higher than the wild type Ngb” value in series [2] (100 μM nitrite, excess dithionite, relative to wild type) was “approximately 2000 fold”. Besides, in series [2] (1 mM nitrite, 0.1 M HEPES pH 7.4, H64L-Ngb normalized to 100%), the “relative percentage of the total absorbance change (Soret peak 425 nm) in the first 60 minutes” value was 100%. Further, the “time to end point of the reaction (in words)” value in series [2] (1 mM nitrite, pH 7.4) is on record as “reached the end point in the first minute”. Also, in series [2] (nitrite 10-1000 μM, 25° C., pH 7.4), the “BRC from linear fit of kobs versus nitrite concentration (stopped-flow)” value was 259 ± 8 M⁻¹ s⁻¹. The “rate of nitrite reaction at acidic pH” value in series [2] (pH 6.5 and 25° C.) is listed as “above 2,500 M^−1 s^−1”. The “nitrite reduction to NO, faster than wild type neuroglobin” value in series [2] (relative to wild type) is reported as “approximately 2000 times”. In series [3], the “completion of iron-nitrosyl formation by EPR (in words)” value is on record as “almost complete in one minute”. Moreover, in series [3] (40±5 μM protein), the “rate of iron-nitrosyl-Ngb / NO formation by EPR (in words)” value is recorded as “dramatically increased the rate of NO formation”. In addition, the Kd in series [4] worked out at 170 ± 80 µM. Also, the “extent of respiration inhibition compared to cyanide” value with SHSY5Y cells is approximately 40%. In series [5], the “inhibition of respiration (cyanide = 100%)” value is given as 96±2%. In addition, in series [6] (20 μM Ngb, 1 mM nitrite, anaerobic), the “rate of NO detected in gas phase (in words)” value is on record as “increased”. Further, in series [6] (30 μM protein, nitrite 10-1000 μM), the “NO generation with increasing amounts of nitrite (in words)” value is reported as “a readily proportional NO generation response was observed”. Besides, in the series with SHSY5Y neuronal cells, the “cGMP levels (in words)” value is “significantly increased”.

For the origin of these results see US9114109B2, “Five-coordinate neuroglobin and use thereof as a blood substitute” (University of Pittsburgh—Of the Commonwealth System of …, priority 2009, dated 2015).
